Measurements as given in patent publication US20150344570A1 (published 2015).
Residue numbers refer to the chain shown, from its start. Names and notes keep the numbering of the source. Like-named read-outs stand apart in the source and are kept apart here.

Columns and labels:
[1] = biological target: FcγRIIb (human, UniProt P31994 43-217); experiment: SPR (Biacore), KD
[2] = biological target: T1, FcgRIIIaV (human, UniProt P08637 17-208); experiment: SPR (Biacore); KD of H240-Kn033/H240-Hl033/L73-k0 divided by KD of the variant
T1 construct: extracellular domain; also called FcγRIIIa V; 3aV; not shown: His tag attached to the C terminus
T1 sequence (P08637 17-208 F176V limits assumed): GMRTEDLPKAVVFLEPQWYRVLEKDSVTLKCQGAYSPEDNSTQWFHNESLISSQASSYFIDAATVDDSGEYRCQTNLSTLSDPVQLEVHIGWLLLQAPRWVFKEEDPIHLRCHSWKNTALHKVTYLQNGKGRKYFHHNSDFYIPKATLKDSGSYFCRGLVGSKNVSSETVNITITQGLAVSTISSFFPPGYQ
Description: (§1) Binding of the produced variants to FcgRIa, FcgRIIaR, FcgRIIaH, FcgRIIb, FcgRIIIaF, and FcgRIIIaV was measured according to the method of Reference Example 8.
(§2) Analysis of interaction between objective antibody and the FcγR was carried out using Biacore T100 (GE Healthcare), Biacore T200, Biacore A100, and Biacore 4000. HBS-EP+ (GE Healthcare) was used as the running buffer, and the measurement temperature was set to 25° C. Chips produced by immobilizing the antigen peptide by the amine coupling method to a Series S sensor Chip CM5 (GE Healthcare), chips produced by allowing preliminarily biotinylated antigen peptides to interact with and immobilize onto a Series S Sensor Chip SA (certified) (GE Healthcare), chips produced by immobilizing Protein L (ACTIGEN, BioVision) to Series S Sencor Chip CM5 (GE Healthcare), or chips produced by immobilizing Protein A/G (Thermo Scientific) to Series S Sencor Chip CM5 (GE Healthcare) were used. Antibodies of interest were captured onto these chips, and allowed to interact to each FcγR diluted with running buffer. To regenerate and repeatedly use the chip, the antibodies captured onto the chip were washed off by reacting 10 mM glycine-HCl, pH 1.5.

[3] = biological target: T2, FcgRIIaH (human, UniProt P12318 34-217); experiment: as above
T2 construct: extracellular domain; also called FcγRIIa H; FcgRIIa type H; not shown: His tag attached to the C terminus
T2 sequence (looked up): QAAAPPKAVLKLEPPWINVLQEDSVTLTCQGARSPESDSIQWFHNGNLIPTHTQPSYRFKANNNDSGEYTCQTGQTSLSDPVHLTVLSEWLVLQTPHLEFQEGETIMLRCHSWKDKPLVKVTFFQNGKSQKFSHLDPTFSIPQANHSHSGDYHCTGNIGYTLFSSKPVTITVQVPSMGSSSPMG
Description: as §1, §2

[4] = biological target: T3, FcgRIIb (human, UniProt P31994 43-217); experiment: as above
T3 construct: extracellular domain; also called FcγRIIb; 2b; not shown: His tag attached to the C terminus
T3 sequence (looked up): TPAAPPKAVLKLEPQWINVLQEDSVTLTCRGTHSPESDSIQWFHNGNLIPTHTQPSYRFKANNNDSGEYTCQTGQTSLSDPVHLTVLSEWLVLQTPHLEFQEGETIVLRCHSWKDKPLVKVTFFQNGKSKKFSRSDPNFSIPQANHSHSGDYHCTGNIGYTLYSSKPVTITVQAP
Description: as §1, §2

[5] = biological target: T4, FcgRIIaR (human, UniProt P12318 34-217); experiment: as above
T4 construct: extracellular domain; also called FcγRIIa R; FcgRIIa type R; not shown: His tag attached to the C terminus
T4 sequence (looked up): T2 sequence (looked up) with H134R
Description: as §1, §2

[6] = biological target: T5, FcgRIIIaF (human, UniProt P08637 17-208); experiment: as above
T5 construct: extracellular domain; also called FcγRIIIa F; 3aF; not shown: His tag attached to the C terminus
T5 sequence (P08637 17-208): as the sequence (P08637 17-208 F176V limits assumed) above, with V160F counted along it
Description: as §1, §2

[7] = biological target: FcγRIa (human, UniProt P12314 16-292); experiment: SPR (Biacore 4000)
Chain of FcγRIa (P12314 16-292): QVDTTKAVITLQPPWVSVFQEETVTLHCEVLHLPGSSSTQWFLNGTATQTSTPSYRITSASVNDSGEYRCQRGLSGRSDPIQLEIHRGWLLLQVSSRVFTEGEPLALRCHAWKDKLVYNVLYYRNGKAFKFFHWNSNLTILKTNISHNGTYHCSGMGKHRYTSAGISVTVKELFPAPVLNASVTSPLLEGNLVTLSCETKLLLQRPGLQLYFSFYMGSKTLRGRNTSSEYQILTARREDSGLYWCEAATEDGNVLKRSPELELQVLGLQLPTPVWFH

[8] = biological target: T6, FcgRIIIa V (human, UniProt P08637 17-208); experiment: SPR (Biacore), antibody captured, FcgR as analyte
T6 construct: extracellular domain; polymorphic site made after J. Clin. Invest; also called FcγRIIIa V
T6 sequence (P08637 17-208 F176V limits assumed): as the sequence (P08637 17-208 F176V limits assumed) above
Description: (§3) Then, H240-Hl136 (SEQ ID NO: 97) resulting from introduction of L234Y/L235Y/G236W/H268D/S298A/A327D into H240-Hl033 and H240-Kn133 (SEQ ID NO: 98) resulting from introduction of D270E/K326D/A330K/K334E into H240-Kn033 were constructed according to the method described in Reference Example 1.
as §2, with “buffer.” for “buffer. To regenerate and repeatedly use the chip, the antibodies captured onto the chip were washed off by reacting 10 mM glycine-HCl, pH 1.5.”

[9] = biological target: T7, FcgRIIa R (human, UniProt P12318 34-217); experiment: SPR (Biacore), antibody captured, FcgR as analyte
T7 construct: extracellular domain; also called FcγRIIa R; FcγRIIa type R
T7 sequence (looked up): T2 sequence (looked up) with H134R
Description: as §3
as §2, with “buffer.” for “buffer. To regenerate and repeatedly use the chip, the antibodies captured onto the chip were washed off by reacting 10 mM glycine-HCl, pH 1.5.”

[10] = biological target: T8, FcgRIIIa F (human, UniProt P08637 17-208); experiment: SPR (Biacore), antibody captured, FcgR as analyte
T8 construct: extracellular domain; polymorphic site made after J. Clin. Invest; also called FcγRIIIa F
T8 sequence (P08637 17-208): as the sequence (P08637 17-208 F176V limits assumed) above, with V160F counted along it
Description: as §3
as §2, with “buffer.” for “buffer. To regenerate and repeatedly use the chip, the antibodies captured onto the chip were washed off by reacting 10 mM glycine-HCl, pH 1.5.”

[11] = biological target: T9, FcgRIIa H (human, UniProt P12318 34-217); experiment: SPR (Biacore), antibody captured, FcgR as analyte
T9 construct: extracellular domain; also called FcγRIIa H; FcγRIIa type H
T9 sequence (looked up): T2 sequence (looked up)
Description: as §3
as §2, with “buffer.” for “buffer. To regenerate and repeatedly use the chip, the antibodies captured onto the chip were washed off by reacting 10 mM glycine-HCl, pH 1.5.”

[12] = biological target: T10, FcgRIIb (human, UniProt P31994 43-217); experiment: SPR (Biacore), antibody captured, FcgR as analyte
T10 construct: extracellular domain; also called FcγRIIb; CD32B
T10 sequence (looked up): T3 sequence (looked up)
Description: (§4) Specifically, H240-Kn120 (SEQ ID NO: 99) resulting from introduction of S239M into H240-Kn067 and H240-Kn126 (SEQ ID NO: 100) resulting from introduction of Y235Q into H240-Kn120 were prepared according to the method described in Reference Example 1. […] Those described above were assayed for the binding to each FcgR according to the method described in Reference Example 8.
as §2

[13] = biological target: T6, FcgRIIIa V; experiment: SPR (Biacore), antibody captured, FcgR as analyte; remark: listed apart in the source
Description: as §4, §2

[14] = biological target: T7, FcgRIIa R; experiment: SPR (Biacore), antibody captured, FcgR as analyte; remark: listed apart in the source
Description: as §4, §2

[15] = biological target: T8, FcgRIIIa F; experiment: SPR (Biacore), antibody captured, FcgR as analyte; remark: listed apart in the source
Description: as §4, §2

[16] = biological target: T9, FcgRIIa H; experiment: SPR (Biacore), antibody captured, FcgR as analyte; remark: listed apart in the source
Description: as §4, §2

[17] = biological target: T11, FcgRIa (human, UniProt P12314 16-292); experiment: SPR (Biacore), antibody captured, FcgR as analyte
T11 construct: extracellular domain; also called FcγRIa; FcγRI
T11 sequence (P12314 16-292): as the sequence (P12314 16-292) above
Description: as §4, §2

B1: H240-Kn120/H240-Hl068/L73-k0 (antibody, human IgG1, kappa)
heavy 1: QDQLVQSGAEVKKPGASVKVSCKASGFNIKDTYIQWVRQAPGQGLEWMGRIDPLRKQTKYREKFEGRVTITADTSTNTAYMELSSLRSEDTAVYYCVRSGREFDYWGQGTLVTVSSASTKGPSVFPLAPSSKSTSGGTAALGCLVKDYFPEPVTVSWNSGALTSGVHTFPAVLQSSGLYSLSSVVTVPSSSLGTQTYICNVNHKPSNTKVDKKVEPKSCDKTHTCPPCPAPEYYWGPMVFLFPPKPKDTLMISRTPEVTCVVVDVSDEDPEVKFNWYVDGVEVHNAKTKPREEQYNATYRVVSVLTVLHQDWLNGKEYKCKVSNKDLPAPIEKTISKAKGQPREPQVCTLPPSRDELTKNQVSLWCLVKGFYPSDIAVEWESNGQPENNYKTTPPVLDSDGSFFLYSKLTVDKSRWQQGNVFSCSVMHEALHNHYTQKSLSLSP
heavy 2: QDQLVQSGAEVKKPGASVKVSCKASGFNIKDTYIQWVRQAPGQGLEWMGRIDPLRKQTKYREKFEGRVTITADTSTNTAYMELSSLRSEDTAVYYCVRSGREFDYWGQGTLVTVSSASTKGPSVFPLAPSSKSTSGGTAALGCLVKDYFPEPVTVSWNSGALTSGVHTFPAVLQSSGLYSLSSVVTVPSSSLGTQTYICNVNHKPSNTKVDKKVEPKSCDKTHTCPPCPAPELLGGPSVFLFPPKPKDTLMISRTPEVTCVVVDVSHEEPEVKFNWYVDGVEVHNAKTKPREEQYNSTYRVVSVLTVLHQDWLNGKEYKCKVSNDALPKPIEETISKAKGQPREPQVYTLPPSRCELTKNQVSLSCAVKGFYPSDIAVEWESNGQPENNYKTTPPVLDSDGSFFLVSKLTVDKSRWQQGNVFSCSVMHEALHNHYTQKSLSLSP
light: DIQMTQSPSSLSASVGDRVTITCRASQDIHKYIAWYQQKPGQAPRLLIQYTSTLQPGVPSRFSGSGSGTDYTFTISSLQPEDIATYYCLQYEQLRTFGGGTKVEIKRTVAAPSVFIFPPSDEQLKSGTASVVCLLNNFYPREAKVQWKVDNALQSGNSQESVTEQDSKDSTYSLSSTLTLSKADYEKHKVYACEVTHQGLSSPVTKSFNRGEC
notes: S239M introduced into H240-Kn067
- fold FcgRIIb-binding activity against native IgG1 [1]: ~50 times

B2: H240-afucosyl_G1d/L73-k0 (antibody, human IgG1, kappa)
heavy: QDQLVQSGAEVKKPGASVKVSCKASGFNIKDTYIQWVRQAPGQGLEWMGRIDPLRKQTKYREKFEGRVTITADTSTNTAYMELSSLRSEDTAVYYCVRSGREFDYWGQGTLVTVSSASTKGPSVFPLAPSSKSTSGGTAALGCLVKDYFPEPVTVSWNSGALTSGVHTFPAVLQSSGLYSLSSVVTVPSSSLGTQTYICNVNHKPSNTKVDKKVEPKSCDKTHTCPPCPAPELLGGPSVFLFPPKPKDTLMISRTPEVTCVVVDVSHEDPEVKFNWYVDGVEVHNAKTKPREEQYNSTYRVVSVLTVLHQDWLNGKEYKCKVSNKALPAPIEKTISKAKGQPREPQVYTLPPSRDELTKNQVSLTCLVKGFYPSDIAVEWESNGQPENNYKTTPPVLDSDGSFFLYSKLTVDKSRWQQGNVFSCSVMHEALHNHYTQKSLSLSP
light: B1 light
modifications: afucosylated: fucose removed from the sugar chain of H240-G1d
notes: also called afucosylated antibody
- fold 3aV [2]: 7 fold
- fold 2aH [3]: 0.7 fold
- fold 2b [4]: 1.3 fold
- fold 2aR [5]: 1.5 fold
- fold 3aF [6]: 3.7 fold

B3: H240-Kn120/H240-Hl073/L73-k0 (antibody, human IgG1, kappa)
heavy 1: B1 heavy 1
heavy 2: B1 heavy 2 with G235S
light: B1 light
notes: G236S introduced into H240-Hl068; also called H240-Kn120/H240-HI073/L73-k0
- koff [7]: < 5e-05 s⁻¹

B4: H240-Kn033/H240-Hl033/L73-k0 (antibody, human IgG1, kappa)
heavy 1: not shown
heavy 2: not shown
light: B1 light
notes: Anti-epiregulin IgG1 with only knobs-into-holes alterations
- fold 3aV [2]: 1 fold
- fold 2aH [3]: 1 fold
- fold 2b [4]: 1 fold
- fold 2aR [5]: 1 fold
- fold 3aF [6]: 1 fold

B5: H240-Kn067/H240-Hl068/L73-k0 (antibody, human IgG1, kappa)
heavy 1: B1 heavy 1 with M238S
heavy 2: B1 heavy 2
light: B1 light
notes: Heterodimerized: L234Y/L235Y/G236W/H268D/S298A/A327D in the knob chain, D270E/K326D/A330K/K334E in the hole chain
- Kd [8]: 1.6 nM
- Kd [9]: 49 nM
- Kd [10]: 7.1 nM
- Kd [11]: 94 nM
- Kd [12]: 370 nM
- Kd [13]: 1.6 nM
- Kd [14]: 49 nM
- Kd [15]: 7.1 nM
- Kd [16]: 94 nM
- Kd [17]: 0.26 nM

B6: H240-Kn126/H240-Hl068/L73-k0 (antibody, human IgG1, kappa)
heavy 1: B1 heavy 1 with Y234Q
heavy 2: B1 heavy 2
light: B1 light
notes: H240-Kn126: Y235Q introduced into H240-Kn120
- Kd [12]: 520 nM
- Kd [13]: 0.64 nM
- Kd [14]: 76 nM
- Kd [15]: 3.7 nM
- Kd [16]: 170 nM
- Kd [17]: 0.4 nM
